For 20 sequences, protein production results are on record in a protein production outcome set (Wang et al. 2014).

The nature of this data set: label from the status in PepcDB records.
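Also: failed if final PepcDB status was selected cloned or expressed and not failed if soluble or beyond.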

As for “MSLDPAHTPDPAHPHDQEAAHAEDPARAIGSARLLDVDPLLDDPGTRIVVCCGSGGVGKTTTAAALGLRAAERGRKVVVLTIDPARRLAQSMGIDSLDNIPRRVKGIDDSASGELHAMMLDMKRTFDEIVEAHADRERAAAILSNPFYQSLSAGFAGTQEYMAMEKLGQLRARDEWDLIIVDTPPSRSALDFLDAPKRLGSFLDGKLIRLLTAPAKLGGRAGMKFLNVGMSMMTGTLGKLLGGQLLKDVQTFVAAMDTTFGGFRTRADATYKLLQAPGTAFLVVAAPERDALREAAYFVERLAAEDMPLAGLVLNRVHGSGAAQLSAERALAAAENLDLAADPGSTENLEESRIVDQEGGKAGLRNSPDTYGSSESPADLTPADQTPASSEGSPATDGAVEQLTAGLLILHAERMQLLSREQRTRDRFAALHPEVAVAEVAALPGDVHDLTGLRDIGDRLAANRPELPTSPGGALEHHHHHH”, the protein production entry is “not failed”.

With “MSLDSKTAPAFSLPDLHGKTVSNADLQGKVTLINFWFPSCPGCVSEMPKIIKTANDYKNKNFQVLAVAQPIDPIESVRQYVKDYGLPFTVMYDADKAVGQAFGTQVYPTSVLIGKKGEILKTYVGEPDFGKLYQEIDTAWRNSDAEGHHHHHH”, the protein production result is “not failed”.

For “MSLDVLTNFAQIQSFTALAIGIMIGLAALGAGLGLAIMAGKFLESAARQPELIPLLQVRMFIAAGLIDAAFIISVAVGLLLAFANPLSSTLLVAVSKALAG”, the protein production entry is recorded as “failed”.

Consider “MSLDVYVNFPADGHVREIAKTVLDGFDLHWYPDYYDAEAQVIKDRYVLGKRTKMIQAISAGVDHIDVNGIPENVVLCSNAGAYSISVAEHAFALLLAHAKNILENNELMKAGIFRQSPTTLLYGKALGILGYGGIGRRVAHLAKAFGMRVIAYTRSSVDQNVDVISESPADLFRQSDFVLIAIPLTDKTRGMVNSRLLANARKNLTIVNVARADVVSKPDMIGFLKERSDVWYLSDVWWNEPEITETNLRNAILSPHVAGGMSGEIMDIAIQLAFENVRNFFEGEGHHHHHH”, for which the protein production entry was “not failed”.

For the sequence “MSLEARVLTGAALEARLDEVARLRIAVFRDWPYLYEGSMDYERSYLSTYRTSPGAILVGAFDGDRLVGASTGTPMEDHAEDFAAAFARTGLPLDEIFYCAESVLLPDYRGHGMGHRFFDLREAHARALGRRHSAFCSVIRPEDHPLRPAAARSNEPFWRKRGYAPLPGVVAHYGWTDVGEERETQKPLQFWIRDL”, the protein production entry is listed as “not failed”.

Take “MSLEGLSINFATVRQGGNFGAIVDACLAHGITAISPWREQVHGVGLAEAARIVEQNGLRLSGHCRGGFFPAIDADGRRRAIEDNKRAVDEAAAMKADCLVLVVGGLPAGSRDLKGARQMVEDGMAKLLPYARAAGVPLAIEPLHPFYAAERACFNTLKQSLDLCDRLGAGTGVAIDVYHVWWDPELEEQVARAGRNGQILAHHICDWLVPTTDPLNDRGMMGDGVIDLKAFRAMIEAAGFHGPQEVEIFSHRWQARPMDEVLATVVERFKTVC”: the protein production entry is on record as “failed”.

In the case of “MSLEIIKTGLAAFGMSGQVFHAPFISTNPHFELYKIVERSKELSKERYPQASIVRSFKELTEDPEIDLIVVNTPDNTHYEYAGMALEAGKNVVVEKPFTSTTKQGEELIALAKKKGLMLSVYQNRRWDADFLTVRDILAKSLLGRLVEYESTFARYRNFIKPNTWKETGESGGGLTYNLGSHLIDQAIQLFGMPEAVFADLGILREGGKVDDYFIIHLLHPSLAPNVKITLKASYLMREAEPRFALHGTLGSYVKYGVDKQEAALLAGEIPERPNWGEESEQEWGLLHTEINGKEICRKYPGIAGNYGGFYQNIYEHLCLGQPLETHAQDILNVIRIIEAAYQSHRENKIVNLKEGHHHHHH”, the protein production result was “not failed”.

“MSLEKPYIISVYALIRNEKGEFLLLRRSENSRTNAGKWDLPGGKVNPDESLKEGVAREVWEETGITMVPGDIAGQVNFELTEKKVIAIVFDGGYVVADVKLSYEHIEYSWVSLEKILGMETLPAYFRDFFERFDRENKKPSKLFIEGHHHHHH”: the protein production result is listed as “not failed”.

As for “MSLELGQAMVTVAGIGCRKGAASDAIIAAVRAAERAFGVTVDYLATAPLKADEAGLAEAAKGLSLSLEIVAQERLEAVAAETMTFSQASLDHSGSPSVSEAAALAAAGAGARLVAPRLVVGDVTVAIAMTSDAPHGSRSAIEYGEQEEGHHHHHH”, the protein production result was “not failed”.

Regarding “MSLEPLDVDAEGVAAATKARGFRPKHLVTGPSRDDKSFLGHPGGLPWMLQVEMWERFSWYGMRAILVYFITDTLAHGGLGLPINAGQVVMASYGAAVLLMTIPGGIFADRILGPWMSTLCGGLIIMTGHVILAIPQVVTSWIGLICIAIGTGFIKPNLSTVVGGLYDDGDPRRDQGFLYFYMSINIGSLFAPIVTGLLKDHYGYHVGFIAAAIGMALGLIAFFHGRSKLREFAFDIPNPLAPGEGRRMVLRALGIAVVGAVLAIGFKALLGEWTSAIAYALFAFASVTALSYFLTMFRSPKVSDRERGHLWAFVPLWVGQVLFTMIFEQAAGKMPTFAKDNTDGHIVGSWSVEPEQYQTINPAAVLILAGLLGMWFRRREGKFPNTPQKFAISVFIIGITALIMGFGFRSWPGGNRLAPWWFLAVVFVIQTVAELFMNPIGLSTATKLAPKKFASQNMTLWLLASACGQGLASVTIERTKNLGDVVFYYSLGIVTILVAVVLFVIAPWTQAKMKDVDSVAEEGDA”, the protein production entry is listed as “failed”.

For the sequence “MSLESLFQHIIFTEHQAEESRRLMREVRSEITRCREKIKKATEELNEEKIKLESKVQQFFEKSFFLQLLKAHENALEKQYSEITNHRNMLLQTFEAIKKQMIEEEDKFIKEITDFNNDYEITKKRELLMKENVKIEISDLENQANMLKSEMKSMEHDSSQLNELQKQKSELIQELFTLQRKLKVFEDEENESICTTKYLEAEKIKISEKPQNDTECLRLKKELELYKEDDMESVYEALQTEIEFLELTLAQKDLQESK”, the protein production result is “failed”.

Consider “MSLFRSRPNALSQRSVIASSSELASLAGRDILKRGGNIFDAALAVSAMLCVTQNNLCGLGGDLFALIRDENGQIMDLNGSGQASRAVSIDYYESMGLTKIPERGPYAAITVPGIAGSWDEIFRKFATMDIADILEPAIRTASAGFPITQNYSDSIARSAPVIGQYRGWSSIFMPNGSVPVAGEILKQPDLAESFRLMSEEGFRSFYDGSLADIIIAGLEGTGSPLSDRDLRVYRPLIGKPVFTDLDEFRIYETSPNSQGITVIEWIRGMESHGYDSRTMWEAKIEDIFETMEEAYDKRRKITDPSYMNIAQHDSANGKKDGLPKRDHNDIGDTTYFSISDSEGRSVSIIQSNYMGFGSGIVPKGTGFVLQNRGSYFTLQRDHPNALMPGKRTFHTLAACMVEKEHDLYASLGSMGGDIQPQVQMQILMEILKDNTDPQAILDKPRWTEPYTIYEAPGAVYVESEELYRNVSKQISGRKVVLRDVSQEFGTAQITTLIRGDVVVGAADPRGDGIAIPYSEGHHHHHH”, for which the protein production result is reported as “not failed”.

Regarding “MSLIENLWRGICIISASEDAFSAGETIKEKLKSFEIPVVHYRYKDAEIETIWKCYDAIVFVMALEGATRIVCKYAKSKTEDPAIVCIDDKINYVIPLLGGHWGANDIARELSVILNSTPIITTAAEIKGKLSIERIANILIAKIINPENIVKINAALLRDESICIDGIDVNVNFPENIKVNSEECSYIISLRGDKEYKDKIVVWLKPLKISIGIGSKKDVKMEEIRDGIYKVLERLNLKRERIGIIASIREEVKKIADEFNVRFRLVNEEEINNFMNPCLTPPSKTLIEVGLKGVAEISALIAGGRNSKLILRKIAISRNSTIAVATYEGHHHHHH”, the protein production entry was “not failed”.

Consider “MSLKIDAVDLFYLSMPEVTDAADGSQDALLVRVAAGGHIGWGECEAAPLPSIAAFVCPKSHGVCRPVSDSVLGQRLDGPDDIARIAALVGYNSMDLLQAPHMLSGIEMALWDLLGRRLSAPAWALLGYSASHGKRPYASLLFGDTPQETLERARAARRDGFAAVKFGWGPIGRGTVAADADQIMAAREGLGPDGDLMVDVGQIFGEDVEAAAARLPTLDAAGVLWLEEPFDAGALAAHAALAGRGARVRIAGGEAAHNFHMAQHLMDYGRIGFIQIDCGRIGGLGPAKRVADAAQARGITYVNHTFTSHLALSASLQPFAGLEADRICEYPAAPQQLALDITGDHIRPDAEGLIRAPEAPGLGLQVAASALRRYLVETEIRIGGQLIYRTPQLEGHHHHHH”, for which the protein production result is “not failed”.

Regarding “MSLKIGIIGGGSVGLLCAYYLSLYHDVTVVTRRQEQAAAIQSEGIRLYKGGEEFRADCSADTSINSDFDLLVVTVKQHQLQSVFSSLERIGKTNILFLQNGMGHIHDLKDWHVGHSIYVGIVEHGAVRKSDTAVDHTGLGAIKWSAFDDAEPDRLNILFQHNHSDFPIYYETDWYRLLTGKLIVNACINPLTALLQVKNGELLTTPAYLAFMKLVFQEACRILKLENEEKAWERVQAVCGQTKENRSSMLVDVIGGRQTEADAIIGYLLKEASLQGLDAVHLEFLYGSIKALERNTNKVEGHHHHHH”, the protein production entry was “not failed”.

On to “MSLKIRDAYTIVTCPGRNFVTLKIVTESGTHGIGDATLNGREMAVAAYLDEHVVPALIGRDAGRIEDTWQYLYRGAYWRRGPVTMTAIAAVDMALWDIKAKAAGMPLYQLLGGKSRERVMTYAHCTGQTIEDCLGEVARHVELGYRAVRVQSGVPGIETTYGVAKTPGERYEPADSSLPAEHVWSTEKYLNHAPKLFAAVRERFGDDLHVLHDVHHRLTPIEAARLGKAVEPYHLFWLEDCVPAENQESLRLIREHTTTPLAIGEVFNSIHDCRELIQNQWIDYIRMPLTHGGGITAMRRVADLASLYHVRTGFHGPTDLSPVCLGAAIHFDTWVPNFGIQEHMPHTDETDAVFPHDYRFEDGHFLAGESPGHGVDIDEELAAKYPYERASLPVNRLEDGTLWHWEGHHHHHH”, for which the protein production entry is recorded as “not failed”.

For “MSLKITGVNIYLLKSGRLHPVLVEISTDEGITGAGEAGIAYGVGGTAAAGMIKDLSERFLIGKDPSRIEELWSTMYDHSFWAKNGGAIIFAGISAIEQALWDIKGKCLGVPVYELFGGKIRDRVRAYANGWYGAADTPDEFARAVERPLKEGYGALKFYPLAQRVGSALQHVTRRSMSAEAIELAYRRVKAVRDAAGPEIELMVDLSGGLTTDETIRFCRKIGELDICFVEEPCDPFDNGALKVISEQIPLPIAVGERVYTRFGFRKIFELQACGIIQPDIGTAGGLMETKKICAMAEAYNMRVAPHVCGSSLIETATLQLEANITNFMIHEHYPAFKADDGYVEVLENPPSISSGYFEMPNGPGLGAVLIKRNIEPYLWASCTEGHHHHHH”, the protein production entry is recorded as “not failed”.

On to “MSLKKTILCFGEALIDMLAQPLVKKGMPRAFLQCAGGAPANVAVAVARLGGAVQFVGMLGSDMFGDFLFDSFAEAGVVTDGIVRTSTAKTALAFVALDAHGERSFSFYRPPAADLLFRVEHFQDASFSDALIFHACSNSMTDADIAEVTFEGMRRAQAAGAIVSFDLNFRPMLWPNGENPASRLWKGLSLADVVKLSSEELDYLANTLAADANAVIQQLWQGRAQLLLVTDAAGPVHWYTRTAGGEVPTFRVQVQDSNAAGDAFVGGMLYTFAQQFDDAAALIDFCHDPESIVSTLRFAAAVGALAVTRQGAFTAMPMLSEVLSLIQEQSEGHHHHHH”, for which the protein production result is listed as “not failed”.

As to “MSLKLYGFSVSNYYNMVKLALLEKGLTFEEVTFYGGQAPQALEVSPRGKVPVLETEHGFLSETSVILDYIEQTQGGKALLPADPFGQAKVRELLKEIELYIELPARTCYAESFFGMSVEPLIKEKARADLLAGFATLKRNGRFAPYVAGEQLTLADLMFCFSVDLANAVGKKVLNIDFLADFPQAKALLQLMGENPHMPRILADKEASMPAFMEMIRSGKREGHHHHHH”, the protein production result is recorded as “not failed”.

Turning to “MSLKTLNIYLMRHGKVDAAPGLHGQTDLKVKEAEQQRIAMAWKTKGYDVAGIISSPLSRCHDLAQILAEQQLLPMTTEDDLQEMDFGDFDGMPFDLLTEHWKKLDAFWQSPAHHSLPNAESLSTFSQRVSRAWSQIINDINDNLLIVTHGGVIRIILAHVLGVDWRNPQWYSTLAIGNASVTHITITIDDQIYASVRSIGVPLVEEGHHHHHH”, the protein production entry is “not failed”.
